T1: CD137 peptide P1 (CRD1)-human Fc fusion protein (human, UniProt Q07011 25-68)
T1 construct: Made in Expi293F cells and used as conditioned medium, captured on anti-hIgG Fc biosensors; not shown: human Fc tag at the C-terminus
T1 chain: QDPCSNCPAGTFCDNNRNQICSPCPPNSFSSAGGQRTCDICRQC

T2: human CD9, full-length, expressed on cells (human, UniProt P21926 2-228)
T2 construct: also called Tetraspanin-29
T2 sequence: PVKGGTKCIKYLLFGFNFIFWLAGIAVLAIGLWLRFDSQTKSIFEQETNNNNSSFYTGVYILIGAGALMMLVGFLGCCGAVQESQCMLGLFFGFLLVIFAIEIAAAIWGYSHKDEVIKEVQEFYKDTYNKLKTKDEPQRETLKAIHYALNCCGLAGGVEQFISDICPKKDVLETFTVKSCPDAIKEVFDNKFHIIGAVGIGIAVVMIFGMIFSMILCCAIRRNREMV


What was measured:
[1] = target: T1, CD137 peptide P1 (CRD1)-human Fc fusion …; assay: BLI (Octet RED384), CD137 CRD peptide-Fc on AHC biosensors, Fab-Y at 10 µg/mL; CRD inferred from the peptide binding profile
Method: DNA sequences coding for each peptide (as shown in Table 7) were ordered from Twist Bioscience in a mammalian expression vector with a human Fc tag at the C-terminus. Each plasmid was used to transfect Expi293F™ cells (Gibcon™) to generate the different peptide-human Fc fusion proteins. For transfections, 850 μl of Expi293F™ cells ([…]) were plated in 48-well blocks and transfected with 3 μg of DNA using the ExpiFectamine™ 293 Transfection Kit (ThermoFisher) following the manufacturer's instructions. Cells were incubated in a 37° C., 5% CO₂ environment with shaking at 225 rpm. After 6 days, cells were pelleted (1000×g, 10 min) and the conditioned medias containing each of the peptides were harvested, quantitated and diluted to 1.7 μg/mL in Expi293™ Expression Medium (ThermoFisher). The conditioned medias were used for binding assessment to our panel of antibodies using the Octet® RED384 System (FortéBio) at room temperature with anti-hIgG Fc Capture (AHC) Biosensors (FortéBio). Firstly, an array of 8 sensors was dipped in kinetics buffer (PBS, 0.1% BSA, 0.02% Tween 20) for 180 seconds to provide a baseline signal. […]

[2] = target: T2, human CD9, full-length, expressed on …; assay: binding to cells expressing full-length CD9 (selection; method not described)

| binding result [1] | binding result [2] | Binder |
| --- | --- | --- |
| binds |  | anti-CD137 Fab-Y 8475 (Fab, V domains shown, Tested as Fab-Y: a Fab whose CH1 is joined by a peptide linker to the GCN4 peptide (clone 7P14P); also called VR8475) VH: QSVEESGGRLVTPGTPLTLTCTVSGFSLSTYAMSWVRQAPGKGLEWIGAIWSGGTTDYTSWAKGRFTISKASTTVDLKITSPTTEDTATYFCVRMAVIFNAYTFDSWGPGTLVTVSS VL: AYDMTQTPSSVSAAVGGTVTIKCQASQNIYSYLAWYQQKPGQRPKLLIYGASTLASGVPSRFKGSGSGTDFTLTISDLECDDAATYYCQQGHSSGNVGNNVFGGGTEVVVK |
|  | binds | anti-CD9 Fab-Y 7272 (Fab, V domains shown, Tested as Fab-Y: a Fab whose CH1 is joined by a peptide linker to the GCN4 peptide (clone 7P14P); also called VR7272) VH: QSLEESGGRLVTPGTPLTLTCTVSGFSLSSYAMGWVRQAPGKGLEWIGAIGSITATGYARWAKGRFSISKTSTTVDLKMTSPTTEDTATYFCAREIYVGSAYAFDIWGPGTLVTVSS VL: AYDMTQTPASVEVAVGDTVTIKCQASQSISNYLAWYQQKPGQPPKLLIYLASTLASGVPSRFKGSGSGTEFTLTISDLECADAATYYCQQGYIDNVNKGFGGGTEVVVK |

Reference: patent US20230151108A1 (UCB, published 2023)
